How the values were obtained:
human IL-7 = molecular target: T1, human IL-7 (human, UniProt P13232 26-177); experiment: direct ELISA: plate coated with 2 µg/mL human IL-7, anti-human IgG-HRP, absorbance at 450 nm
T1 construct: also called hIL-7
T1 sequence (looked up): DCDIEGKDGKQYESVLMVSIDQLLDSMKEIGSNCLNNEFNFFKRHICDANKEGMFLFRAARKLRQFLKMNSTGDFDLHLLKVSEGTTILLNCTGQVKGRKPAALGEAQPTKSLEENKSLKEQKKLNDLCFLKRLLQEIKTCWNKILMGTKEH

mouse TSLP = molecular target: T2, mouse TSLP (mouse, UniProt Q9JIE6 20-140); experiment: direct ELISA: plate coated with 2 µg/mL mouse TSLP, anti-human IgG-HRP, absorbance at 450 nm
T2 construct: also called mouse TSLP cytokine
T2 sequence (looked up): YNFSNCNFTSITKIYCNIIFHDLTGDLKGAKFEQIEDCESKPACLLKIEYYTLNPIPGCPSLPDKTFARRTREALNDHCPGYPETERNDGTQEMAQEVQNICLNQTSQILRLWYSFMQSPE
Protocol: The next day, the plates were washed three times with ELISA wash buffer and blocked with ELISA assay diluent B (BioLegend) for one hour at room temperature (RT). […] Antibody binding was assessed using an 8-point titration curve in triplicates (1:3 serial dilution starting at 10 μg/mL). The plate was washed three times with ELISA wash buffer, and HRP-conjugated anti-human IgG-HRP secondary antibody (Jackson ImmunoResearch Laboratories, Inc.) was added to wells at a 1:5000 dilution in 1×ELISA assay diluent. Secondary antibody was added to detect binding of the primary antibody to the antigen. The plate was incubated for 30 minutes at room temperature with the secondary detection antibody, then the plates were washed three times with ELISA wash buffer and developed with TMB substrate solution (Invitrogen, Waltham, MA). The HRP enzymatic reaction was stopped after about 1 minute with acidic stop solution (Invitrogen), and the absorbance at 450 nm on a Biotek plate reader.
The EC₅₀ values were calculated using Graphpad Prism 9.2.0 by fitting a four-parameter non-linear regression curve to the average absorbance values of three technical replicates per concentration with three independent experiments. […] N=4 independent experiments with 3 technical replicates. […] N=3 independent experiments with 3 technical replicates.

binding result (human IL-7): no binding (tested: about 5 µg/ml)
binding result (mouse TSLP): no binding (tested: about 5 µg/ml)
B1: Reference Antibody (antibody, human IgG2, lambda, V domains shown)
VH: QMQLVESGGGVVQPGRSLRLSCAASGFTFRTYGMHWVRQAPGKGLEWVAVIWYDGSNKHYADSVKGRFTITRDNSKNTLNLQMNSLRAEDTAVYYCARAPQWELVHEAFDIWGQGTMVTVSS
VL: SYVLTQPPSVSVAPGQTARITCGGNNLGSKSVHWYQQKPGQAPVLVVYDDSDRPSWIPERFSGSNSGNTATLTISRGEAGDEADYYCQVWDSSSDHVVFGGGTKLTVLG
notes: Comparator anti-TSLP antibody with an IgG2 heavy chain constant domain and lambda light chain

From patent publication US20250109193A1 (FLAGSHIP PIONEERING INNOVATIONS VI, published 2025)
